The results in this text go back to publication PMC4935968, “Engineering biosynthesis of the anticancer alkaloid noscapine in yeast” (Nature Communications, 2016).

The target of the assay is T1, hexa-histidine tagged PsMT2 (Papaver somniferum, UniProt I3PLQ6 1-356).
T1 construct: PsMT2, O-methyltransferase of the noscapine gene cluster of Papaver somniferum; gene codon-optimised for S. cerevisiae, amplified with primers PsMT2-pET-F/R and inserted into pET28a; Printed mass of the His-tagged protein is 40.09 kDa; also called His-tagged PsMT2; source: E. coli BL21(DE3), co-expressed with T7-tagged PsMT3 or Ps6OMT; complex purified (Ni-NTA agarose, then T7 tag antibody …)
T1 sequence (looked up): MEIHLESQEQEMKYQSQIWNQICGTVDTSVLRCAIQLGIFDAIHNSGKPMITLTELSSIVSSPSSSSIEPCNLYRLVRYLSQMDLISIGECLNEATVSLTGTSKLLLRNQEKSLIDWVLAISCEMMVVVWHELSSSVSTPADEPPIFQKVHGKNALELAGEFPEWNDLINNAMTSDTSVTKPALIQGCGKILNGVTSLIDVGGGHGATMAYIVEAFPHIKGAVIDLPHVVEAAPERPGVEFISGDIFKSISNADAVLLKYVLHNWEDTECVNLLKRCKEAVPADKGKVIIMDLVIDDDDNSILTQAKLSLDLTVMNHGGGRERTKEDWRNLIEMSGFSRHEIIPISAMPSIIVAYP
As to the kind of experiment: pull-down; tandem affinity co-purification from lysate of E. coli co-expressing both proteins: Ni-NTA agarose (His-tagged PsMT2), eluate then on T7 tag antibody agarose (T7-tagged partner); product analysed by SDS-PAGE and western blot with Anti-6X His tag and Anti-T7 tag antibodies. The following applies: partners not purified.

B1: Ps6OMT with T7 tag (enzyme, Papaver somniferum, UniProt Q6WUC1 1-346, looked up)
chain: METVSKIDQQNQAKIWKQIYGFAESLVLKCAVQLEIAETLHNNVKPMSLSELASKLPVAQPVNEDRLFRIMRYLVHMELFKIDATTQKYSLAPPAKYLLRGWEKSMVDSILCINDKDFLAPWHHLGDGLTGNCDAFEKALGKSIWVYMSVNPEKNQLFNAAMACDTRLVTSALANECKSIFSDGISTLVDVGGGTGTAVKAISKAFPDIKCTIYDLPHVIADSPEIPNITKISGDMFKSIPSADAIFMKCILHDWNDDECIQILKRCKEALPKGGKVIIVDVVIDMDSTHPYAKIRLTLDLDMMLNTGGKERTKEEWKTLFDAAGFASHKVTQISAVQSVIEAYPY
notes: norcoclaurine 6-O-methyltransferase from Papaver somniferum (Ps6OMT); also called norcoclaurine 6-O-methyltransferase from P. somniferum; source: E. coli, co-transformed with pCS3306 (His-tagged PsMT2) and pCS3534; complex purified by a similar procedure as PsMT2/PsMT3 (Ni-NTA agarose, then T7 tag antibody agarose); not shown: T7 tag, C-terminal, kept
B1: the binding result is recorded as “binds”.
